In US20080286310A1:

Target: Translocated intimin receptor Tir of EHEC O157:H7 (enterohemorrhagic Escherichia coli O157:H7) (UniProt Q7DB77)
Experiment: cell-based or functional assay

UniProt Q7DB77, sequence (Q7DB77 whole entry): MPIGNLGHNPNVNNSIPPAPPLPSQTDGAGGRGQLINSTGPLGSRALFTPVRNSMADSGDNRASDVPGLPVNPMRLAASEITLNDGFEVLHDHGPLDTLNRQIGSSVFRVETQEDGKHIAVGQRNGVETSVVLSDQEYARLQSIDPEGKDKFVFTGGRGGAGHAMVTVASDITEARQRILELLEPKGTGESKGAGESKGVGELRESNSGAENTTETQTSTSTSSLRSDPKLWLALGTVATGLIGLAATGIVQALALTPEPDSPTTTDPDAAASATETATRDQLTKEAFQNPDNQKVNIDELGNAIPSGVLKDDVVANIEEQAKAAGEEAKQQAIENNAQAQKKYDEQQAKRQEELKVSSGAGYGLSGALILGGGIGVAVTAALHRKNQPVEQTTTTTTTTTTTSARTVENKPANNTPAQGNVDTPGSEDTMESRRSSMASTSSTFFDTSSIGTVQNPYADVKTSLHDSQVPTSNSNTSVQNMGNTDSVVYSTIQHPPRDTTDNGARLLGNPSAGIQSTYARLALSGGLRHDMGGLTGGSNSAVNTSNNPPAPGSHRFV

Native intimin of EHEC O157:H7 strain 86-24 (from UniProt P43261 40-934)
microcolonies on HeLa cells (percent of cells): 47%
